Experimental data from patent US20050221287A1 (CONSEJO SUPERIOR DE INVESTIGACIONES CIENTIFICAS PHARMACIA …, published 2005).

How the values were obtained:
[1] = target: T1, STAT6 (human, UniProt P42226 2-847); assay: association with CXCR4 in CXCL12-stimulated IM-9 cells (data not shown)
T1 sequence (looked up): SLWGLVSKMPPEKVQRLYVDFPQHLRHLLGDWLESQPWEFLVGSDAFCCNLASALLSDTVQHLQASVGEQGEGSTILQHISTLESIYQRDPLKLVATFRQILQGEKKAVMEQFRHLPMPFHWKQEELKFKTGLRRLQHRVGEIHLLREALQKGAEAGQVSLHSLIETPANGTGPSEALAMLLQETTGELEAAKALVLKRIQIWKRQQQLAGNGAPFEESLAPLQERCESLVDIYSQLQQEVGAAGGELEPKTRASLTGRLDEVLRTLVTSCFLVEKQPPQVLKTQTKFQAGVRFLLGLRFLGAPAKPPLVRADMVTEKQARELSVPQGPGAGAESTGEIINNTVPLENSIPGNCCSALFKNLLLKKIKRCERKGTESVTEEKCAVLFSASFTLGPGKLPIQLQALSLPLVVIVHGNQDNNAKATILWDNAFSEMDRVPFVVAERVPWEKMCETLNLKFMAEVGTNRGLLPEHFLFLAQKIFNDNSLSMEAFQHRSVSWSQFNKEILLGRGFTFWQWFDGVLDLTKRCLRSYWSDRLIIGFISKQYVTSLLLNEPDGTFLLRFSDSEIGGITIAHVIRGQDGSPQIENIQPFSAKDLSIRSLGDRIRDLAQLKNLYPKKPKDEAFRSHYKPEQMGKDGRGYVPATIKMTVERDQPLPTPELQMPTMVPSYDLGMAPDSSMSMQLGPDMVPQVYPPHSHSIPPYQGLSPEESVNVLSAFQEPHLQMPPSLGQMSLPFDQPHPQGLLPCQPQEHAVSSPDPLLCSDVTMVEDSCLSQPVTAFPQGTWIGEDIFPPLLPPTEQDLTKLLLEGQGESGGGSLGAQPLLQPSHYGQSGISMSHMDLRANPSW

[2] = target: T2, STAT4 (human, UniProt Q14765 1-748); assay: as above
T2 sequence (looked up): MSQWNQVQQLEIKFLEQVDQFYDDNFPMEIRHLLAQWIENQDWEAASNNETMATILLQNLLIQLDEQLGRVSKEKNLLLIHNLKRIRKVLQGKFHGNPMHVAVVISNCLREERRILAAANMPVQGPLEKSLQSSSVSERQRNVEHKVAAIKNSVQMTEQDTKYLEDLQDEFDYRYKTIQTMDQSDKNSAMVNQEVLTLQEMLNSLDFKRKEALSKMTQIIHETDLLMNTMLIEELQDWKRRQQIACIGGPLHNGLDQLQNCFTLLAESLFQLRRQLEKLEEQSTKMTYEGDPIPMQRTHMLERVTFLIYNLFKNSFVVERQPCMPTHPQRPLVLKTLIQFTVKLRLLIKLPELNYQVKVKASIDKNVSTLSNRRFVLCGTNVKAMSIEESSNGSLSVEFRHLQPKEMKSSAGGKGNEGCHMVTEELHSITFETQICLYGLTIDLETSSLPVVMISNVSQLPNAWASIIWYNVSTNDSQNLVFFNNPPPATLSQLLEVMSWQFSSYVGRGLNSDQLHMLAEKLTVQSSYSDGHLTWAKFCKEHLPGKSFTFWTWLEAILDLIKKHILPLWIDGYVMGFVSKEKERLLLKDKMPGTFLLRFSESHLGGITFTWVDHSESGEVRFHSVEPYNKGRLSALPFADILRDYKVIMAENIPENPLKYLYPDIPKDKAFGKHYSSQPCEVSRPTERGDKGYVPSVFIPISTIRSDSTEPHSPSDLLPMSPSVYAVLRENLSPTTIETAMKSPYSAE

[3] = target: STAT2 (human, UniProt P52630 1-851); assay: association with CXCR4 in CXCL12-stimulated IM-9 cells
[4] = target: T3, STAT1 (human, UniProt P42224 2-750, limits assumed); assay: as above
T3 sequence (looked up): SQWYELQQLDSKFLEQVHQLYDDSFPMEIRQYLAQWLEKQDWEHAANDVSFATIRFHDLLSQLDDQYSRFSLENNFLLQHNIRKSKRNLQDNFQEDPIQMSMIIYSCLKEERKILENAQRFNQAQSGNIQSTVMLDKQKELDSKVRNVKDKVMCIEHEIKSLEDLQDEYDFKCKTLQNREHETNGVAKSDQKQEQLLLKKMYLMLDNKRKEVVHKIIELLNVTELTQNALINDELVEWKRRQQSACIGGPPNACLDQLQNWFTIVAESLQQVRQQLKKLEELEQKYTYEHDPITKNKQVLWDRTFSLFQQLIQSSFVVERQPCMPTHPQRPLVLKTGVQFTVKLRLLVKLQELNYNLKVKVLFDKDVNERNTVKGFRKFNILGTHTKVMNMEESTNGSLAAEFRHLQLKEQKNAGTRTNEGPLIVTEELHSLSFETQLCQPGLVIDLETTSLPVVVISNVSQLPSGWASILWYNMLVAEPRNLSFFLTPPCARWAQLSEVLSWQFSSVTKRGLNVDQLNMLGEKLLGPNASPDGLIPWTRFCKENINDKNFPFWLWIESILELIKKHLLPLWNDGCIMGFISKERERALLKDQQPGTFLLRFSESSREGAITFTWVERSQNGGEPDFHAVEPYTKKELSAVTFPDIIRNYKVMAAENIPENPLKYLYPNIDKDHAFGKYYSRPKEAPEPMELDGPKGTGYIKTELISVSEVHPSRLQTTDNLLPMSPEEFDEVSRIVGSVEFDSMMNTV

[5] = target: STAT3 (human, UniProt P40763 2-770, limits assumed); assay: as above
[6] = target: T4, JAK1 (human, UniProt P23458 1-1154); assay: as above
T4 construct: Endogenous protein of IM-9 cell lysates
T4 sequence (P23458 whole entry): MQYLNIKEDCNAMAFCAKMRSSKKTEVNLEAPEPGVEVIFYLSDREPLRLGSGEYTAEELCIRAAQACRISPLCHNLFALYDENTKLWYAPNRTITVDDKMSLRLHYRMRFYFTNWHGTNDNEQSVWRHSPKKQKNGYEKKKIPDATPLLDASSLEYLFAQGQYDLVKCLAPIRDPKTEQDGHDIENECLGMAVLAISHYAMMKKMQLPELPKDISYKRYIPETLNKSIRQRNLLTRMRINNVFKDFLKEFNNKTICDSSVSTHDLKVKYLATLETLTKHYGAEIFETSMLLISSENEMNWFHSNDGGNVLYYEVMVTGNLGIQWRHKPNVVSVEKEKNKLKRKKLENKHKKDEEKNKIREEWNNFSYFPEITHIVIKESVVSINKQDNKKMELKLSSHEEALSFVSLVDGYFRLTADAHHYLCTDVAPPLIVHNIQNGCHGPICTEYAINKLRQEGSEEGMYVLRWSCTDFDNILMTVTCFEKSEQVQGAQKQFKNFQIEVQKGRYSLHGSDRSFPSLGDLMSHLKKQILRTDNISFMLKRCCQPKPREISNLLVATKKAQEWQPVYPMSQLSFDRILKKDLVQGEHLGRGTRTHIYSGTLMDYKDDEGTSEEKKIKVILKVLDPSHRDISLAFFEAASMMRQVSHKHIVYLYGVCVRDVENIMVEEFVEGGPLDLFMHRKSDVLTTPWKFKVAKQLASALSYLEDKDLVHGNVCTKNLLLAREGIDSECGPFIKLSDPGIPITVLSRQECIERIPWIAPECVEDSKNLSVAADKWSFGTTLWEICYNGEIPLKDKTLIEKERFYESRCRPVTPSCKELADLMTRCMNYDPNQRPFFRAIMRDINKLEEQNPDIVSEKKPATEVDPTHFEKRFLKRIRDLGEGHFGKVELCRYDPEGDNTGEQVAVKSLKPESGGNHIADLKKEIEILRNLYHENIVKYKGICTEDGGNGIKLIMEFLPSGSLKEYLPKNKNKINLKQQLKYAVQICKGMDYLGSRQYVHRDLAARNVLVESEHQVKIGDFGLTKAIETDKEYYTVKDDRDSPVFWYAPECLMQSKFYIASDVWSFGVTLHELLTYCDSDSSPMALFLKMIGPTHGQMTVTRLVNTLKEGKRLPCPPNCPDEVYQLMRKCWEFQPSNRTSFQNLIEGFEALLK

Sequence of STAT3 (P40763 2-770 limits assumed): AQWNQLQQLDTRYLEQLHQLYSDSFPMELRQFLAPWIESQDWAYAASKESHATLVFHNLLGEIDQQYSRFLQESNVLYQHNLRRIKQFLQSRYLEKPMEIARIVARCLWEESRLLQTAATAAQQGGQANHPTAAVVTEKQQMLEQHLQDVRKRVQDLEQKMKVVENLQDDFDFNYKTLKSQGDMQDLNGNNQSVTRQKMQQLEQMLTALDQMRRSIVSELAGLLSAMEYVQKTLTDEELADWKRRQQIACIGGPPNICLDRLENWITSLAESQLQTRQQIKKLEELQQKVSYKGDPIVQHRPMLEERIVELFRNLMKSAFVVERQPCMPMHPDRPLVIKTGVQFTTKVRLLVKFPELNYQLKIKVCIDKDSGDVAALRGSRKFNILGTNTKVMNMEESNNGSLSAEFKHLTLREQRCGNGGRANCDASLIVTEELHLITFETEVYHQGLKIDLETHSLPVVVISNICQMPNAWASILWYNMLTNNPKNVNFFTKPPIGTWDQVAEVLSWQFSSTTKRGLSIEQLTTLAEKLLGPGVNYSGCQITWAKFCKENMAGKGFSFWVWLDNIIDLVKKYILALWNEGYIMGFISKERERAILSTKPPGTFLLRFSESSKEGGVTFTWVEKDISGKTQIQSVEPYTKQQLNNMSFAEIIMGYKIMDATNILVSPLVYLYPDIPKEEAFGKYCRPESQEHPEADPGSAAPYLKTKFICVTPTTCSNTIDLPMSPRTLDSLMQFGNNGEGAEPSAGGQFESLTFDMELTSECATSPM
Sequence of STAT2 (P52630 whole entry): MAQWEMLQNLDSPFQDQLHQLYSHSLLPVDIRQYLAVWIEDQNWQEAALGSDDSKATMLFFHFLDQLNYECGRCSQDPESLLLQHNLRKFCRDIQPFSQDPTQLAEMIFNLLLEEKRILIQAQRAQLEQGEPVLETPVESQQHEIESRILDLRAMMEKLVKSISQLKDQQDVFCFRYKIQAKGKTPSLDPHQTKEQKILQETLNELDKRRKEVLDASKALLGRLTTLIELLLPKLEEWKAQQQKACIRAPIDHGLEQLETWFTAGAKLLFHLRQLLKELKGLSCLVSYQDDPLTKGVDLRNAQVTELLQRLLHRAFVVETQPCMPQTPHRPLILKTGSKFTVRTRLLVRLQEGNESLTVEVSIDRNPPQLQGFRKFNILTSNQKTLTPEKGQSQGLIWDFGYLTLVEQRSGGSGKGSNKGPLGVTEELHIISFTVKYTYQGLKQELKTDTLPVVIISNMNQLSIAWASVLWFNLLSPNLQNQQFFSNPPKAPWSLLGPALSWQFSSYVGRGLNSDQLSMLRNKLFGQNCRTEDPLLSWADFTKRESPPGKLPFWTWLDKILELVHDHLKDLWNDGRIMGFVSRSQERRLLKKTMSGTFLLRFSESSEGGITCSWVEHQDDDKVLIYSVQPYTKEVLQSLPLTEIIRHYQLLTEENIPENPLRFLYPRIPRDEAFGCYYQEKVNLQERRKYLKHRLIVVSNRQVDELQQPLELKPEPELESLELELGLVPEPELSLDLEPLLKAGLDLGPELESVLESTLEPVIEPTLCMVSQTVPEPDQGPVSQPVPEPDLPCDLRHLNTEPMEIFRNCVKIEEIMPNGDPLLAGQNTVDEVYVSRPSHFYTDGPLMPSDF

binding result [1]: no binding | binding result [2]: no binding | binding result [3]: binds | binding result [4]: binds | binding result [5]: binds | binding result [6]: binds
B1: CXCR4 (receptor, human, UniProt P61073 1-352, looked up)
chain: MEGISIYTSDNYTEEMGSGDYDSMKEPCFREENANFNKIFLPTIYSIIFLTGIVGNGLVILVMGYQKKLRSMTDKYRLHLSVADLLFVITLPFWAVDAVANWYFGNFLCKAVHVIYTVNLYSSVLILAFISLDRYLAIVHATNSQRPRKLLAEKVVYVGVWIPALLLTIPDFIFANVSEADDRYICDRFYPNDLWVVVFQFQHIMVGLILPGIVILSCYCIIISKLSHSKGHQKRKALKTTVILILAFFACWLPYYIGISIDSFILLEIIKQGCEFENTVHKWISITEALAFFHCCLNPILYAFLGAKFKTSAQHALTSVSRGSSLKILSKGKRGGHSSVSTESESSSFHSS
notes: whole, on cells; Endogenous receptor of IM-9 cells: on the cell surface in flow cytometry, immunoprecipitated from digitonin lysates in the co-immunoprecipitations; also called CXCR4 receptor; the CXCR4
